Test results reported in article PMC3832608.

Molecular target: T1, Corticotropin Releasing Factor receptor 2 (CRF2) (human (endogenous in HT-29)) (UniProt Q13324)
T1 sequence: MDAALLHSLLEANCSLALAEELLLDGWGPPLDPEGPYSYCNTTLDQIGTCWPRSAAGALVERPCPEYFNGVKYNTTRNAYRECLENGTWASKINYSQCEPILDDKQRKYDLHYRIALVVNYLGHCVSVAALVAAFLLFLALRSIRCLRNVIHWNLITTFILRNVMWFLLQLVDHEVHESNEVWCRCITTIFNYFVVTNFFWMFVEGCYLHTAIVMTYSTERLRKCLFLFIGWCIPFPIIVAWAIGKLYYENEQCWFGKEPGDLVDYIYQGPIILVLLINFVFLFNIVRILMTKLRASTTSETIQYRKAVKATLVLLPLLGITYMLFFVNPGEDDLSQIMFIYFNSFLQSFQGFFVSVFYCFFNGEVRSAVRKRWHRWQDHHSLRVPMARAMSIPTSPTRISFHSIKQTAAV

B1: Corticotropin releasing factor (CRF) (peptide)
peptide: SEEPPISLDLTFHLLREVLEMARAEQLAQQAHSNRKLMEIIGK
  cAMP production by HT-29 cells treated with 1 µM CRF (ELISA kit); completely reversed by 1 µM astressin2b (A2b) (pM of cAMP/10^5 cells): 0.5

B2: Urocortin 3 (Ucn3) (peptide)
peptide: FTLSLDVPTNIMNLLFNIAKAKNLRAQAAANAHLMAQI
  cAMP production by HT-29 cells treated with 1 µM Ucn3 (ELISA kit); completely reversed by 1 µM astressin2b (A2b) (pM of cAMP/10^5 cells): 2.4

B3: Urocortin 2 (Ucn2) (peptide)
peptide: IVLSLDVPIGLLQILLEQARARAAREQATTNARILARVGHC
  cAMP production by HT-29 cells treated with 1 µM Ucn2 (ELISA kit); completely reversed by 1 µM astressin2b (A2b) (pM of cAMP/10^5 cells): 1
